The source of these data is the supplement of paper PMC7877785.

± gives the uncertainty stated by the source.

A short description of this data set: self-splicing fitness, log relative to wild type (ln ratio); higher = more splicing; Tetrahymena group I intron in knt gene, E. coli kanamycin selection, DiMSum; sequences stand for … in CUCUCU…GGAGGGAAAAGUUAUCAGGCAUGCACCUGGUAGCUAGUCUUUAAACCAAUAGAUUGCAUCGGUUUAAAAGGCAAGACCGUCAAAUUGCGGGAAAGGGGUCAACAGCCGUUCAGUACCAAGUCUCAGGGGAAACUUUGAGAUGGCCUUGCAAAGGGUAUGGUAAUAAGCUGACGGACAUGGUCCUAACCACGCAGCCAAGUCCUAAGUCAACAGAUCUUCUGUUGAUAUGGAUGCAGUUCACAGACUAAAUGUCGGUCGGGGAAGAUGUAUUCUUCUCAUAAGAUAUAGUCGGACCUCUCCUUAAUGGGAGCUAGCGGAUGAAGUGAUGCAACACUGGAGCCGCUGGGAACUAAUUUGUAUGCGAAAGUAUAUUGAUUAGUUUUGGAGUACUCGUGGUCG
A digest of the protocol:
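A randomised library covering all eight P1ex-region intron nucleotides was built with the intron in the knt kanamycin-resistance gene on pET-22b(+) and held in E. coli BL21(DE3). Cells were grown overnight at 37°C or 30°C on LB agar, with or without 25 μg/mL kanamycin, plus 100 μg/mL carbenicillin, 50 μM IPTG and 0.2% rhamnose, and pooled colonies were amplicon-sequenced on an Illumina HiSeq 2500. DiMSum fitness is the error-weighted combination of wild-type-normalised replicate fold changes, kanamycin versus none.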

With CUGGAGCAAUAUUACGGGAU, the “self-splicing fitness (ln)” value reads like this: (30 °C) -4.01 ± 0.37; (37 °C) -1.91 ± 0.28.
As to GUAUAGCAAUAUUACGACUU, the “self-splicing fitness (ln)” value is -0.268 ± 0.072 (30 °C) and -0.0307 ± 0.085 (37 °C).
On to UAGCAGCAAUAUUACGGUGG, for which the “self-splicing fitness (ln)” value (30 °C) is -1.85 ± 0.089 and the “self-splicing fitness (ln)” value (37 °C) is -1.12 ± 0.1.
The matching figures for CUUAAGCAAUAUUACGAUAG: -2.01 ± 0.15 and -0.283 ± 0.15.
The matching figures for CAUAAGCAAUAUUACGGCAA: -2.52 ± 0.18 and -1.61 ± 0.18.
The matching figures for CAUUAGCAAUAUUACGUUAA: -2.87 ± 0.22 and -1.91 ± 0.2.
Turning to UACGAGCAAUAUUACGGCAC, for the setting “37 °C”, the “self-splicing fitness (ln)” value is -2.53 ± 0.41.
In the case of AAUCAGCAAUAUUACGGGGC, the “self-splicing fitness (ln)” value is -3.92 ± 0.33 (30 °C) and -2.58 ± 0.29 (37 °C).
On the same counts, the results for CAAGAGCAAUAUUACGCUAU are -3.62 ± 0.38 and -2.19 ± 0.27.
On the same counts, the results for GUUUAGCAAUAUUACGACGG are -2.88 ± 0.25 and -3.5 ± 0.47.
On the same counts, the results for GCAGAGCAAUAUUACGUUUG are -3.98 ± 0.27 and -2.77 ± 0.25.
For the sequence GUCAAGCAAUAUUACGGGUA, the “self-splicing fitness (ln)” value is, setting by setting: (30 °C) -2.91 ± 0.12; (37 °C) -1.45 ± 0.076.
With CUCCAGCAAUAUUACGCUAC, the “self-splicing fitness (ln)” value (30 °C) was -4.08 ± 0.29 and the “self-splicing fitness (ln)” value (37 °C) is -2.75 ± 0.23.
On the same counts, the results for ACAUAGCAAUAUUACGGACU are -0.288 ± 0.057 and 0.36 ± 0.074.
On the same counts, the results for CCCAAGCAAUAUUACGCAGG are -2.94 ± 0.2 and -2.7 ± 0.48.
On the same counts, the results for GCGCAGCAAUAUUACGUGUG are -3.2 ± 0.12 and -2.65 ± 0.15.
For AAGUAGCAAUAUUACGCAUG, the “self-splicing fitness (ln)” value runs as follows: (30 °C) -2.05 ± 0.069; (37 °C) -0.492 ± 0.074.
On the same counts, the results for UGCUAGCAAUAUUACGGCAU are -3.65 ± 0.28 and -2.37 ± 0.31.
The matching figures for UUUAAGCAAUAUUACGAAUC: -2.96 ± 0.28 and -1.04 ± 0.25.
The matching figures for GUUCAGCAAUAUUACGAUCC: -1.37 ± 0.12 and -1.05 ± 0.14.
As to AAUAAGCAAUAUUACGGGAC, the “self-splicing fitness (ln)” value is -3.76 ± 0.3 (30 °C) and -2.17 ± 0.21 (37 °C).
On the same counts, the results for UUAAAGCAAUAUUACGAUCU are -0.857 ± 0.065 and -0.22 ± 0.088.
Turning to UGGUAGCAAUAUUACGGUGA, the “self-splicing fitness (ln)” value is -1.36 ± 0.12 (30 °C) and -1.34 ± 0.12 (37 °C).
The matching figures for GUCUAGCAAUAUUACGUCGC: -0.459 ± 0.2 and 0.215 ± 0.19.
On the same counts, the results for GUCAAGCAAUAUUACGAUCG are -3.39 ± 0.19 and -2.88 ± 0.23.
The matching figures for CGUCAGCAAUAUUACGGCCA: -0.937 ± 0.083 and 0.106 ± 0.097.
In the case of CAUGAGCAAUAUUACGGGUC, the “self-splicing fitness (ln)” value by setting is: (30 °C) -2.75 ± 0.25; (37 °C) -2.75 ± 0.27.
The matching figures for GGCAAGCAAUAUUACGACGC: -0.177 ± 0.14 and -0.105 ± 0.17.
As for CCGUAGCAAUAUUACGUGCU, under “37 °C”, the “self-splicing fitness (ln)” value is -1.98 ± 0.19.
Regarding AACGAGCAAUAUUACGAUUG, the “self-splicing fitness (ln)” value was -4.09 ± 0.23 (30 °C) and -1.56 ± 0.23 (37 °C).
The matching figures for CCUUAGCAAUAUUACGUUCA: -3.3 ± 0.47 and -2.9 ± 0.47.
The matching figures for UAAAAGCAAUAUUACGAAUG: -1.18 ± 0.067 and 0.0515 ± 0.081.
Take CCCUAGCAAUAUUACGCCCU: the “self-splicing fitness (ln)” value is, setting by setting: (30 °C) -3.61 ± 0.35; (37 °C) -1.54 ± 0.23.
On the same counts, the results for CUGGAGCAAUAUUACGGGAA are -2.68 ± 0.31 and -2.36 ± 0.27.
On the same counts, the results for CAAGAGCAAUAUUACGGGCA are -2.96 ± 0.24 and -1.79 ± 0.23.
On the same counts, the results for AACUAGCAAUAUUACGGUAG are -2.06 ± 0.11 and 0.0456 ± 0.12.
Turning to CGUUAGCAAUAUUACGUUUU, the “self-splicing fitness (ln)” value reads like this: (30 °C) -4.77 ± 0.27; (37 °C) -2.99 ± 0.17.
Take UUGUAGCAAUAUUACGUCAG: the “self-splicing fitness (ln)” value reads like this: (30 °C) -1.12 ± 0.22; (37 °C) -0.45 ± 0.19.
Take AGCCAGCAAUAUUACGGGGA: the “self-splicing fitness (ln)” value runs as follows: (30 °C) -1.87 ± 0.12; (37 °C) -0.713 ± 0.11.
The matching figures for UUCAAGCAAUAUUACGCUAU: -2.4 ± 0.15 and -1.63 ± 0.16.
As to ACAGAGCAAUAUUACGAUAC, for the setting “30 °C”, the “self-splicing fitness (ln)” value was -1.87 ± 0.35.
As to AGGGAGCAAUAUUACGAACA, the “self-splicing fitness (ln)” value is -3.22 ± 0.45 (30 °C) and -1.72 ± 0.31 (37 °C).
On the same counts, the results for AGGCAGCAAUAUUACGGAAG are -2.92 ± 0.13 and -1.98 ± 0.15.
AAAGAGCAAUAUUACGACUG: for the setting “30 °C”, the “self-splicing fitness (ln)” value was -3 ± 0.32.
Regarding CAUAAGCAAUAUUACGCCAC, the “self-splicing fitness (ln)” value by setting is: (30 °C) -2.8 ± 0.37; (37 °C) -2.59 ± 0.39.
The matching figures for GAUCAGCAAUAUUACGCUGG: -3.48 ± 0.21 and -3.18 ± 0.27.
The matching figures for UCUCAGCAAUAUUACGGCGU: -0.533 ± 0.087 and -0.636 ± 0.12.
On the same counts, the results for GCUAAGCAAUAUUACGGGAG are -3.12 ± 0.34 and -1.28 ± 0.17.
For the sequence CCUCAGCAAUAUUACGCGCG, the “self-splicing fitness (ln)” value by setting is: (30 °C) -2.78 ± 0.13; (37 °C) -1.45 ± 0.13.
For the sequence GUGAAGCAAUAUUACGUUUC, the “self-splicing fitness (ln)” value (30 °C) was -3.08 ± 0.17 and the “self-splicing fitness (ln)” value (37 °C) was -2.53 ± 0.34.
As to GGAGAGCAAUAUUACGAGAC, the “self-splicing fitness (ln)” value by setting is: (30 °C) -2.12 ± 0.22; (37 °C) -1.88 ± 0.35.
On the same counts, the results for AUUAAGCAAUAUUACGCAGU are -3.15 ± 0.21 and -2.48 ± 0.21.
Consider CGGUAGCAAUAUUACGGGCG, for which the “self-splicing fitness (ln)” value (30 °C) was -0.838 ± 0.12 and the “self-splicing fitness (ln)” value (37 °C) is 0.0595 ± 0.14.
Take CGGUAGCAAUAUUACGCAGG: the “self-splicing fitness (ln)” value is -1.26 ± 0.12 (30 °C) and -1.44 ± 0.18 (37 °C).
The matching figures for GCUAAGCAAUAUUACGGUUA: -1.33 ± 0.1 and -1.49 ± 0.094.
The matching figures for UGGCAGCAAUAUUACGCAAC: -2.74 ± 0.18 and -2.14 ± 0.39.
On the same counts, the results for CCAGAGCAAUAUUACGGUCC are -3.93 ± 0.33 and -1.51 ± 0.34.
CGAGAGCAAUAUUACGCUUA: the “self-splicing fitness (ln)” value reads like this: (30 °C) -2.49 ± 0.23; (37 °C) -2.13 ± 0.46.
On the same counts, the results for GGUGAGCAAUAUUACGACCG are -0.141 ± 0.11 and 0.778 ± 0.19.
The matching figures for GCCAAGCAAUAUUACGCGUG: -3.46 ± 0.11 and -1.97 ± 0.1.
On the same counts, the results for GUGCAGCAAUAUUACGGUAU are -2.16 ± 0.12 and -1.53 ± 0.15.
With GAGAAGCAAUAUUACGGUCC, the “self-splicing fitness (ln)” value reads like this: (30 °C) -2.14 ± 0.24; (37 °C) -1.06 ± 0.21.
The matching figures for AGUUAGCAAUAUUACGGGAA: -2.22 ± 0.19 and -1.05 ± 0.16.
The matching figures for UUGCAGCAAUAUUACGUGGG: -3.24 ± 0.12 and -2.8 ± 0.17.
The matching figures for UUCAAGCAAUAUUACGAACA: -2.07 ± 0.2 and -0.752 ± 0.13.
On to AUUUAGCAAUAUUACGCUGA, for which the “self-splicing fitness (ln)” value is -1.32 ± 0.19 (30 °C) and -2.44 ± 0.3 (37 °C).
On to AUCUAGCAAUAUUACGAAUA, for which, where the note is “37 °C”, the “self-splicing fitness (ln)” value is -0.668 ± 0.32.
Consider UGAUAGCAAUAUUACGAUUG, for which the “self-splicing fitness (ln)” value was -0.719 ± 0.12 (30 °C) and -0.301 ± 0.15 (37 °C).
On the same counts, the results for AGAAAGCAAUAUUACGUAAC are -3.26 ± 0.22 and -2.47 ± 0.33.
On the same counts, the results for UAGCAGCAAUAUUACGGGAA are -2.47 ± 0.19 and -1.41 ± 0.18.
The matching figures for UAGUAGCAAUAUUACGACUA: -0.0384 ± 0.12 and 0.251 ± 0.12.
For the sequence GUGGAGCAAUAUUACGCCUU, the “self-splicing fitness (ln)” value was -2.3 ± 0.31 (30 °C) and -1.09 ± 0.22 (37 °C).
With GAAAAGCAAUAUUACGGAUA, the “self-splicing fitness (ln)” value was -1.32 ± 0.13 (30 °C) and -1.18 ± 0.12 (37 °C).
On the same counts, the results for ACAGAGCAAUAUUACGGCCG are -2.2 ± 0.27 and -1.33 ± 0.25.
As to AUCUAGCAAUAUUACGGGAA, the “self-splicing fitness (ln)” value was -0.643 ± 0.13 (30 °C) and -0.903 ± 0.14 (37 °C).
For GCAAAGCAAUAUUACGCCCG, the “self-splicing fitness (ln)” value runs as follows: (30 °C) -1.23 ± 0.22; (37 °C) -2.06 ± 0.38.
